From patent US7179889B2, “Propionicin T1 polypeptide, a bacteriocin from Propionibacterium thoenii” (Provisage As, priority 2001, dated 2007)
“Also recorded” adds a separate entry of the source.

B1: Propionicin T1: new bacteriocin isolated from Propionibacterium thoenii 419 and LMG 2792; prebacteriocin SEQ ID NO:11, N-terminal sequence SEQ ID NO:9 (protein, listed as Propionibacterium thoenii)
chain: MKKTLLRSGTIALATAAAFGASLAAAPSAMAVPGGCTYTRSNRDVIGTCKTGSGQFRIRLDCNNAPDKTSVWAKPKVMVSVHCLVGQPRSISFETK

Assays:
[1] = test system: Listeria monocytogenes; conditions: food-borne pathogen; cited from earlier work
[2] = test system: Lactobacillus sake NCDO 2714; experiment: overlay assay, zones of growth inhibition around producer colonies; format: cell-based; conditions: bacteriocin
Experimental: (§1) Screening for antimicrobial activity. Colonies of strains of propionibacteria were grown on agar plates for 72 to 120 hr. A lawn of 5 ml GM17 soft agar containing 500 μl of a fresh culture of the indicator organisms was then poured over the plates. After incubation for 24 to 48 hr at 30° C., the colonies were examined for zones of growth inhibition.

[3] = test system: all strains of Propionibacterium thoenii tested; experiment: inhibition spectrum of propionicin T1; format: cell-based
Experimental: as §1
(§2) Bacteriocin assay. Antimicrobial activity was determined by a microtiter plate assay (8). Each well of the microtiter plate contained 50 μl of twofold serial dilutions in SLB or GM17 of the bacteriocin samples, and 150 μl of a 100-fold-diluted fresh overnight culture of the indicator strain. The plates were incubated at 30° C. for 24 to 48 hr, and growth inhibition of the indicator organisms was measured spectrophotometrically at 620 nm with a microtiter plate reader. One bacteriocin unit (BU) was defined as the amount of bacteriocin that inhibited the growth of the indicator organism by 50% as compared with a control culture without bacteriocin.

[4] = test system: all strains of Propionibacterium acidipropionici tested; experiment: inhibition spectrum of propionicin T1; format: cell-based
Experimental: as §1, §2

[5] = test system: all strains of Propionibacterium jensenii tested; experiment: inhibition spectrum of propionicin T1; format: cell-based
Experimental: as §1, §2

[6] = test system: P. acidipropionici ATCC 4965; experiment: effect of the bacteriocin on the viability of sensitive cells; format: cell-based, Propionibacterium acidipropionici
Experimental: Effect of the bacteriocin on the viability of sensitive cells. Partially purified bacteriocin from P. thoenii 419 eluted in 0.3 M NaCl from an ion-exchange column was added in variable amounts to a 48 hr culture of P. acidipropionici grown in GM17, diluted 100-fold. Optical density at 620 nm and viable count (by dilution and plate counting) were determined at time intervals.
The effect of propionicin T1 on viability of sensitive cells. Several experiments were performed to show the effect of propionicin T1 on the viability of the indicator cells. Cultures of P. acidipropionici ATCC 4965 were exposed to different amounts of partially purified propionicin T1. […] More than 99% of the cells were killed after 40 hr (FIG. 2A). The same result was also obtained using 100 or 4000 BU/ml. […] This increase was followed by a decrease in optical density (FIG. 2B).

[7] = test system: Propionibacterium freudenreichii; experiment: overlay assay, ten strains of Propionibacterium freudenreichii; format: cell-based; conditions: bacteriocin
Experimental: as §1

[8] = stability of propionicin T1 (heat, acid, storage); format: physicochemical
Experimental: as §2
Stability of propionicin T1. The stability of the peptide was tested, by exposing the bacteriocin (0.3 M NaCl eluate from the cation exchange column) to temperatures of 60° C. and 100° C. for 15 min and to pH 2.5 for one hour. […] Thus, propionicin T1 is heat stable and acid stable.

Row | Molecule | activity against Listeria monocytogenes [1] | activity against Lactobacillus sake NCDO 2714 [2] | activity against Propionibacterium thoenii [3] | activity against Propionibacterium acidipropionici [4] | activity against Propionibacterium jensenii [5] | optical density (620 nm) of bacteriocin treated cultures ([6]; 100 or 1000 BU/ml culture, FIG. 2B) | cells killed, other bacteriocin amounts ([6]; 100 or 4000 BU/ml) | viable count ([6]; after 4 hr, plate counting) | cells killed ([6]; after 40 hr, 1000 BU/ml culture, plate counting, partially purified) | mode of action on indicator cells ([6]; plate counting) | activity against Propionibacterium freudenreichii [7] | antimicrobial activity after heat exposure ([8]; 60° C. for 15 min, 0.3 M NaCl eluate from cation exchange column) | antimicrobial activity after heat exposure ([8]; 100° C. for 15 min, 0.3 M NaCl eluate from cation exchange column) | antimicrobial activity after acid exposure ([8]; pH 2.5 for one hour, 0.3 M NaCl eluate from cation exchange column) | bacteriocin activity after storage at room temperature ([8]; room temperature for 24 hr) | bacteriocin activity after freezing, thawing and storage ([8]; storage at 4° C. or −20° C. up to six months)
1 | nisin | not very sensitive |  |  |  |  |  |  |  |  |  |  |  |  |  |  | 
2 | pediocin PA1 (KYYGNGVTCGKHSCSVDWGKATTCIINNGAMAWATGGHQGNHKC; Bacteriocin pediocin PA-1; UniProt P29430 19-62, looked up) [antibacterial protein produced by Pediococcus acidilactici PAC1.0] | very active |  |  |  |  |  |  |  |  |  |  |  |  |  |  | 
3 | B1 |  | active | active | active | active | increase in the optical density for several hours after addition of bacteriocin | same result | reduction in viable count | More than 99% | bactericidal effect; also recorded: slow bactericidal mode of action | no activity; also recorded: no strains of P. freudenreichii were inhibited | No reduction in antimicrobial activity | No reduction in antimicrobial activity | No reduction in antimicrobial activity | no effect on the bacteriocin activity | no effect on the bacteriocin activity
